Where no end group is shown, it is not given here.
Columns and labels:
[1] = target: T1, VCAM-1 expression in the atherosclerotic lesion (Mus musculus, UniProt P29533); experiment: Carotid activity ratios from gamma-well counting of excised vessels and blood; type: in vivo, ApoE−/− mice; conditions: for Left-to-right carotid artery activity ratio compared with EP43: FIG. 4; for Left carotid-to-blood activity ratio compared with EP43: FIG. 5
T1 construct: The inventors observed a positive VCAM-1 staining in the atherosclerotic lesion as compared with a contralateral vessel; from tissue; host or cells: ligated left carotid artery (atherosclerotic lesion) of living ApoE-/- mice
T1 sequence (P29533 25-739): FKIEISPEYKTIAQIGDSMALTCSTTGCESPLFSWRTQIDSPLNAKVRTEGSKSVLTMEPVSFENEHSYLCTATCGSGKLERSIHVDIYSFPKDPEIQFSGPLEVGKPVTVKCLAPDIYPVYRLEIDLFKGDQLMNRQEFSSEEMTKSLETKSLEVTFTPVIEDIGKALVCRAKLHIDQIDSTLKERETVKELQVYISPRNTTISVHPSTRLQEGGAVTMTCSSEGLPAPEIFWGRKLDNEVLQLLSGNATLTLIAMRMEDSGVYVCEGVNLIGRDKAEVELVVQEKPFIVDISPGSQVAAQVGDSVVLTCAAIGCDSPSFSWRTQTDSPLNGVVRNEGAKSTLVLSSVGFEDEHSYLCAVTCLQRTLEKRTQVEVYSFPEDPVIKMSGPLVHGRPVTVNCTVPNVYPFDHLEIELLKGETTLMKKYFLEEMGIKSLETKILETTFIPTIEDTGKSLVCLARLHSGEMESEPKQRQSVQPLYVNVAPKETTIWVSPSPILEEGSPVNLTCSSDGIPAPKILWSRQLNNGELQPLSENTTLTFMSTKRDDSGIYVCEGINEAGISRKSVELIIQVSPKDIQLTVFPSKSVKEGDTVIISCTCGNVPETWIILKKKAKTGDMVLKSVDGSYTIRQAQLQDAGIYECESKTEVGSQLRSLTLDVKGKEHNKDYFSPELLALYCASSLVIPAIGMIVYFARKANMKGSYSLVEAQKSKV
From the text: The inventors also analyzed the left-to-right carotid activity ratios (FIG. 1) and left carotid-to-blood activity ratios (FIG. 2). These ratios were obtained from gamma-well counting of excised vessels and blood.

[2] = target: T1, VCAM-1 expression in the atherosclerotic lesion; experiment: In vivo whole-body planar imaging; design: species or system ApoE−/− mice; conditions: for Left-to-right carotid activity ratio from quantified planar images compared to EP43: FIG. 8, FIG. 9; for Non invasive imaging of tracer uptake in the carotid atherosclerotic lesion: whole-body planar images, similar dose of tracer, FIG. 6
Method: In vivo planar imaging was performed using a small-animal dedicated gamma-camera equipped with a parallel-hole collimator.

VCAM-1 = target: T2, VCAM-1 (Homo sapiens, UniProt P19320); conditions: Ling et al. (2000); cited from earlier work
T2 sequence (P19320 25-739): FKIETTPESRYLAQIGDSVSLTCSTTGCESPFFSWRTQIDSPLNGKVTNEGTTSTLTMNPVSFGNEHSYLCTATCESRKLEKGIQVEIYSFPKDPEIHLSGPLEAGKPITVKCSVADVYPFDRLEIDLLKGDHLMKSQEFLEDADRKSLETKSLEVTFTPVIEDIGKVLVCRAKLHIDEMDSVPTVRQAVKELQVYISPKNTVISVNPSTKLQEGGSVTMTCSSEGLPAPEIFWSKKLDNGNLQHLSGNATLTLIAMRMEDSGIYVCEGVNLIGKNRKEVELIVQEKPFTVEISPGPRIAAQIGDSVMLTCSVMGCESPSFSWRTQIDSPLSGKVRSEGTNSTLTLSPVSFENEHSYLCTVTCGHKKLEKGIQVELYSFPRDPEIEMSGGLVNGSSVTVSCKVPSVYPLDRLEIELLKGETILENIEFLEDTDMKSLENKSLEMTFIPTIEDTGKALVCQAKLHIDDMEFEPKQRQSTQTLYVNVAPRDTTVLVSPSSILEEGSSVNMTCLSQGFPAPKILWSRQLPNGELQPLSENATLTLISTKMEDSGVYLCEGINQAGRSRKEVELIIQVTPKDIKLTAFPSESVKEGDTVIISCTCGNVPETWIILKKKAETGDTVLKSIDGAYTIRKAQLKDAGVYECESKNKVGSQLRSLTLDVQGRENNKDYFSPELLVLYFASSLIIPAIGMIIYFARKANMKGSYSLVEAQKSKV

[3] = target: T3, VCAM-1 expression in atherosclerotic lesions (Mus musculus, UniProt P29533); experiment: In vivo pinhole SPECT imaging; design: species or system ApoE−/− mice
T3 construct: The inventors observed a positive VCAM-1 staining in the atherosclerotic lesion as compared with a contralateral vessel; from tissue; host or cells: ligated left carotid artery (atherosclerotic lesion) of living ApoE-/- mice
T3 sequence (P29533 25-739): T1 sequence (P29533 25-739)
Method: In vivo pinhole SPECT imaging was performed using a small-animal dedicated gamma-camera equipped with a pinhole collimator for high-resolution imaging.

[4] = Organ biodistribution of 99mTc-labelled tracers by gamma-well counting of excised organs; conditions: 3 hours after injection
Method: An experimental model of ApoE^−/− mice with left carotid artery ligation was used.
Left carotid artery ligation was performed under anesthesia and the animals were returned to their cages. Three weeks later, the animals were re-anesthetized and the radiotracers were injected in a lateral tail vein. Planar imaging was performed for 3 hours before the animals were euthanized. The major organs were excised, weighed and gamma-well counted for the determination of the tracers' biodistribution.

[5] = high resolution pinhole SPECT, FIG. 10

Left-to-right carotid artery activity ratio compared with EP43 [1] | Left carotid-to-blood activity ratio compared with EP43 [1] | Left-to-right carotid activity ratio from quantified planar images compared to EP43 [2] | Sequence | Binding to VCAM-1 (VCAM-1) | Non invasive imaging of tracer uptake in the carotid atherosclerotic lesion [2] | further results
did not display improved | did not display improved | did not display improved | HGRANLRILARA (also: 99mTc label) [EP51] |  |  | 
did not display improved | did not display improved | did not display improved | HGRANLRILAAY (also: 99mTc label) [EP52] |  |  | 

More lines, now with the values behind:

Sequence | Left-to-right carotid artery activity ratio compared with EP43 [1] | Left carotid-to-blood activity ratio compared with EP43 [1] | Left-to-right carotid activity ratio from quantified planar images compared to EP43 [2] | Binding to VCAM-1 (VCAM-1) | Non invasive imaging of tracer uptake in the carotid atherosclerotic lesion [2] | further results
YRLAIRLNER RENLRIALRY (YRLAIRLNERRENLRIALRY; B2702-rp) |  |  |  | bind specifically |  | 
HGRENLRIALRY [B2702-p, parent tracer, reference compound] |  |  |  | bind specifically | high circulating blood activity precluded the non invasive imaging | 
HGRANLRILARY (not fully specified; also: 99mTc label) [EP43] |  |  |  |  | allowed the detection of VCAM-1 expression in the atherosclerotic lesion | Left-to-right carotid activity ratio versus B2702-p ([1]; gamma-well counting, FIG. 1): significantly higher; Left carotid-to-blood activity ratio versus B2702-p ([1]; gamma-well counting, FIG. 2): significantly higher; Quantification of planar images, compared with other evaluated tracers ([2]; FIG. 7): superiority; Tracer activity in the atherosclerotic lesion versus contralateral vessel, image quantification ([3]; all animals, FIG. 11): significantly higher mean tracer activity; In vivo SPECT imaging of VCAM-1 expression in atherosclerotic lesions ([3]; conclusion): allowed in vivo SPECT imaging of VCAM-1 expression in atherosclerotic lesions; Tracer activity in the right carotid area [3, 5]: no significant tracer activity could be detected; Tracer uptake at the atherosclerotic lesion (left carotid) [3, 5]: uptake at the level of the atherosclerotic lesion; Left carotid activity, compared among tracers [4]: highest left carotid activity; Tracer activity in the atherosclerotic lesion versus contralateral, control carotid [4]: significantly higher

Reference: patent US20120034163A1, “NON-INVASIVE TOOLS FOR DETECTING VULNERABLE ATHEROSCLEROTIC PLAQUES” (UNIVERSITE JOSEPH FOURIER, priority 2009, published 2012)
